US20230392126A1, “TISSUE ORGANOIDS” (priority 2016, published 2023)

Legend:
[1] = hBChE in blood by ELISA, mice grafted with mouse skin organoids; format: in vivo
Excerpt: To efficiently transplant mouse epidermal progenitor cells, a new organotypic culture model with mouse epidermal progenitor cells was developed in vitro by culturing the cells on top of acellularized mouse dermis. Exposure to the air/liquid interface can induce stratification of cultured cells to generate a skin-like organoid in vitro. […] To investigate the potential therapeutic effect of hBChE expression in vivo, we transplanted the organoids to isogenic host animals (CD1 and C57BL/6) (FIGS. 22A and 22B-C). […] Expression of hBChE in grafted animals was stable for more than 10 weeks (FIG. 22H).

[2] = Acquisition of cocaine conditioned place preference (CPP); format: in vivo, mouse; conditions: 10 mg/kg cocaine i.p., grafted cocaine-naïve mice
Experimental: (§1) CPP apparatus: The CPP apparatus (FIG. 17; Med Associates, E. Fairfield, VT, USA) consisted of two larger chambers (16.8×12.7×12.7 cm), which were separated by a smaller chamber (7.2×12.7×12.7 cm) as previously described (Yan et al., 2013). […] Time spent in each chamber was measure via photobeam breaks and recorded. CPP was determined on testing days via time spent in the drug-paired side minus time spent in the saline-paired side.
(§2) Acquisition of CPP: A biased CPP procedure was used similar to that from a previous study (Yan et al., 2013). Acquisition of CPP consisted of three sequential procedures—pretest, conditioning, and test. […] On Day 6 (test day) mice were allowed to explore the entire chambers for 20 min and time spent in each area was recorded. […]
(§3) Next, protection against development of cocaine-seeking was assessed using the conditioned place preference (CPP) paradigm, which is thought to model reward learning and seeking because experimental animals approach and remain in contact with cues that have been paired with the effects of the reward. hBChE-expressing cells were grafted to cocaine-naïve mice with GWT animals as controls. […] As an additional control, ethanol CPP was measured after 4 days of conditioning in GhBChE and GWT mice.

[3] = Acquisition of ethanol CPP in GhBChE and GWT mice; format: in vivo, mouse; conditions: 2 g/kg ethanol i.p., specificity control
Experimental: as §1, §2, §3

[4] = after i.v. injection; cited from earlier work
[5] = hBChE in blood by ELISA, nude mice grafted with human skin organoids

B1: hBChE: modified human butyrylcholinesterase (E30-6, SEQ ID NO: 41), cocaine hydrolase, expressed from engineered epidermal cells / skin grafts (protein)
chain: MHSKVTIICIRFLFWFLLLCMLIGKSHTEDDIIIATKNGKVRGMNLTVFGGTVTAFLGIPYAQPPLGRLRFKKPQSLTKWSDIWNATKYANSCCQNIDQSFPGFHGSEMWNPNTDLSEDCLYLNVWIPAPKPKNATVLIWIYGGGFQTGTSSLHVYDGKFLARVERVIVVSMNYRVGALGFLALPGNPEAPGNMGLFDQQLALQWVQKNIAAFGGNPKSVTLFGESSGAASVSLHLLSPGSHSLFTRAILQSGSANAPWAVTSLYEARNRTLNLAKLTGCSRENETEIIKCLRNKDPQEILLNEAFVVPYGTALGVNFGPTVDGDFLTDMPDILLELGQFKKTQILVGVNKDEGTWFLVGGAPGFSKDNNSIITRKEFQEGLKIFFPGVSEFGKESILFHYTDWVDDQRPENYREALGDVVGDYNFICPALEFTKKFSEWGNNAFFYYFEHRSSKLPWPEWMGVMHGYEIEFVFGLPLERRDNYTKAEEILSRSIVKRWANFAKYGNPNETQNNSTSWPVFKSTEQKYLTLNTESTRIMTKLRAQQCRFWTSFFPKVLEMTGNIDEAEWEWKAGFHRWNNYMMDWKNQFNDYTSKKESCVGL
modifications: Human mutant BChE
With B1 the “duration of stable hBChE expression in grafted animals” value ([1]; hosts with intact immune systems) was “more than 10 weeks”, the “level of human BChE in the blood” value ([1]; mice grafted with hBChE-expressing mouse cells) was “significantly elevated levels of human BChE in the blood” and the “cocaine CPP after 4 days of place conditioning” value [2] was “showed no such preference”. The “ethanol CPP after 4 days of conditioning” value [3] was “spent significantly more time in ethanol-paired environments”, the half-life in vivo [4] was “short half-life in vivo” and the “duration of stable hBChE expression in vivo” value ([5]; human grafts) was “more than 8 weeks”. The “level of human BChE in the blood” value ([5]; human hBChE-expressing grafts) was “significantly levels of human BChE in the blood”.
